Tested on: KDM4A-I71AzF
Test: CASI: photo-crosslinking with HEK293T cell extracts, StrepTactin enrichment and LC-MS/MS proteomics;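 also: lysates from HEK293T cells pretreated with a KDM4 inhibitor to raise proteome methylation, affinity-purified after ±UV, gel-resolved, trypsin-digested, with exclusive unique peptides per protein averaged per condition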
Assay type: binding, human
Conditions: sheet "Final results but with 0.01"

| Molecule | Fold change (+UV/-UV) |
| --- | --- |
| FUBP2_HUMAN (protein, UniProt Q92945 2-711, looked up) Far upstream element-binding …: SDYSTGGPPPGPPPPAGGGGGAGGAGGGPPPGPPGAGDRGGGGPGGGGPGGGSAGGPSQPPGGGGPGIRKDAFADAVQRARQIAAKIGGDAATTVNNSTPDFGFGGQKRQLEDGDQPESKKLASQGDSISSQLGPIHPPPRTSMTEEYRVPDGMVGLIIGRGGEQINKIQQDSGCKVQISPDSGGLPERSVSLTGAPESVQKAKMMLDDIVSRGRGGPPGQFHDNANGGQNGTVQEIMIPAGKAGLVIGKGGETIKQLQERAGVKMILIQDGSQNTNVDKPLRIIGDPYKVQQACEMVMDILRERDQGGFGDRNEYGSRIGGGIDVPVPRHSVGVVIGRSGEMIKKIQNDAGVRIQFKQDDGTGPEKIAHIMGPPDRCEHAARIINDLLQSLRSGPPGPPGGPGMPPGGRGRGRGQGNWGPPGGEMTFSIPTHKCGLVIGRGGENVKAINQQTGAFVEISRQLPPNGDPNFKLFIIRGSPQQIDHAKQLIEEKIEGPLCPVGPGPGGPGPAGPMGPFNPGPFNQGPPGAPPHAGGPPPHQYPPQGWGNTYPQWQPPAPHDPSKAAAAAADPNAAWAAYYSHYYQQPPGPVPGPAPAPAAPPAQGEPPQPPPTGQSDYTKAWEEYYKKIGQQPQQPGAPPQQDYTKAWEEYYKKQAQVATGGGPGAPPGSQPDYSAAWAEYYRQQAAYYGQTPGPGGPQPPPTQQGQQQAQ | 1.125 |
| GCSP_HUMAN (protein, UniProt P23378 36-1020, looked up) Glycine dehydrogenase …: DSSSGGGDSAAAGASRLLERLLPRHDDFARRHIGPGDKDQREMLQTLGLASIDELIEKTVPANIRLKRPLKMEDPVCENEILATLHAISSKNQIWRSYIGMGYYNCSVPQTILRNLLENSGWITQYTPYQPEVSQGRLESLLNYQTMVCDITGLDMANASLLDEGTAAAEALQLCYRHNKRRKFLVDPRCHPQTIAVVQTRAKYTGVLTELKLPCEMDFSGKDVSGVLFQYPDTEGKVEDFTELVERAHQSGSLACCATDLLALCILRPPGEFGVDIALGSSQRFGVPLGYGGPHAAFFAVRESLVRMMPGRMVGVTRDATGKEVYRLALQTREQHIRRDKATSNICTAQALLANMAAMFAIYHGSHGLEHIARRVHNATLILSEGLKRAGHQLQHDLFFDTLKIQCGCSVKEVLGRAAQRQINFRLFEDGTLGISLDETVNEKDLDDLLWIFGCESSAELVAESMGEECRGIPGSVFKRTSPFLTHQVFNSYHSETNIVRYMKKLENKDISLVHSMIPLGSCTMKLNSSSELAPITWKEFANIHPFVPLDQAQGYQQLFRELEKDLCELTGYDQVCFQPNSGAQGEYAGLATIRAYLNQKGEGHRTVCLIPKSAHGTNPASAHMAGMKIQPVEVDKYGNIDAVHLKAMVDKHKENLAAIMITYPSTNGVFEENISDVCDLIHQHGGQVYLDGANMNAQVGICRPGDFGSDVSHLNLHKTFCIPHGGGGPGMGPIGVKKHLAPFLPNHPVISLKRNEDACPVGTVSAAPWGSSSILPISWAYIKMMGGKGLKQATETAILNANYMAKRLETHYRILFRGARGYVGHEFILDTRPFKKSANIEAVDVAKRLQDYGFHAPTMSWPVAGTLMVEPTESEDKAELDRFCDAMISIRQEIADIEEGRIDPRVNPLKMSPHSLTCVTSSHWDRPYSREVAAFPLPFVKPENKFWPTIARIDDIYGDQHLVCTCPPMEVYESPFSEQKRASS | 6 |
| CMTR1_HUMAN (protein, UniProt Q8N1G2 1-835, looked up) Cap-specific mRNA …: MKRRTDPECTAPIKKQKKRVAELALSLSSTSDDEPPSSVSHGAKASTTSLSGSDSETEGKQHSSDSFDDAFKADSLVEGTSSRYSMYNSVSQKLMAKMGFREGEGLGKYSQGRKDIVEASSQKGRRGLGLTLRGFDQELNVDWRDEPEPSACEQVSWFPECTTEIPDTQEMSDWMVVGKRKMIIEDETEFCGEELLHSVLQCKSVFDVLDGEEMRRARTRANPYEMIRGVFFLNRAAMKMANMDFVFDRMFTNPRDSYGKPLVKDREAELLYFADVCAGPGGFSEYVLWRKKWHAKGFGMTLKGPNDFKLEDFYSASSELFEPYYGEGGIDGDGDITRPENISAFRNFVLDNTDRKGVHFLMADGGFSVEGQENLQEILSKQLLLCQFLMALSIVRTGGHFICKTFDLFTPFSVGLVYLLYCCFERVCLFKPITSRPANSERYVVCKGLKVGIDDVRDYLFAVNIKLNQLRNTDSDVNLVVPLEVIKGDHEFTDYMIRSNESHCSLQIKALAKIHAFVQDTTLSEPRQAEIRKECLRLWGIPDQARVAPSSSDPKSKFFELIQGTEIDIFSYKPTLLTSKTLEKIRPVFDYRCMVSGSEQKFLIGLGKSQIYTWDGRQSDRWIKLDLKTELPRDTLLSVEIVHELKGEGKAQRKISAIHILDVLVLNGTDVREQHFNQRIQLAEKFVKAVSKPSRPDMNPIRVKEVYRLEEMEKIFVRLEMKIIKGSSGTPKLSYTGRDDRHFVPMGLYIVRTVNEPWTMGFSKSFKKKFFYNKKTKDSTFDLPADSIAPFHICYYGRLFWEWGDGIRVHDSQKPQDQDKLSKEDVLSFIQMHRA | 3 |
| SEPT9_HUMAN (protein, UniProt Q9UHD8 1-586, looked up) Septin-9: MKKSYSGGTRTSSGRLRRLGDSSGPALKRSFEVEEVETPNSTPPRRVQTPLLRATVASSTQKFQDLGVKNSEPSARHVDSLSQRSPKASLRRVELSGPKAAEPVSRRTELSIDISSKQVENAGAIGPSRFGLKRAEVLGHKTPEPAPRRTEITIVKPQESAHRRMEPPASKVPEVPTAPATDAAPKRVEIQMPKPAEAPTAPSPAQTLENSEPAPVSQLQSRLEPKPQPPVAEATPRSQEATEAAPSCVGDMADTPRDAGLKQAPASRNEKAPVDFGYVGIDSILEQMRRKAMKQGFEFNIMVVGQSGLGKSTLINTLFKSKISRKSVQPTSEERIPKTIEIKSITHDIEEKGVRMKLTVIDTPGFGDHINNENCWQPIMKFINDQYEKYLQEEVNINRKKRIPDTRVHCCLYFIPATGHSLRPLDIEFMKRLSKVVNIVPVIAKADTLTLEERVHFKQRITADLLSNGIDVYPQKEFDEDSEDRLVNEKFREMIPFAVVGSDHEYQVNGKRILGRKTKWGTIEVENTTHCEFAYLRDLLIRTHMQNIKDITSSIHFEAYRVKRLNEGSSAMANGMEEKEPEAPEM | 0.6667 |
| DDX17_HUMAN (protein, UniProt Q92841 1-729, looked up) Probable ATP-dependent RNA …: MPTGFVAPILCVLLPSPTREAATVASATGDSASERESAAPAAAPTAEAPPPSVVTRPEPQALPSPAIRAPLPDLYPFGTMRGGGFGDRDRDRDRGGFGARGGGGLPPKKFGNPGERLRKKKWDLSELPKFEKNFYVEHPEVARLTPYEVDELRRKKEITVRGGDVCPKPVFAFHHANFPQYVMDVLMDQHFTEPTPIQCQGFPLALSGRDMVGIAQTGSGKTLAYLLPAIVHINHQPYLERGDGPICLVLAPTRELAQQVQQVADDYGKCSRLKSTCIYGGAPKGPQIRDLERGVEICIATPGRLIDFLESGKTNLRRCTYLVLDEADRMLDMGFEPQIRKIVDQIRPDRQTLMWSATWPKEVRQLAEDFLRDYTQINVGNLELSANHNILQIVDVCMESEKDHKLIQLMEEIMAEKENKTIIFVETKRRCDDLTRRMRRDGWPAMCIHGDKSQPERDWVLNEFRSGKAPILIATDVASRGLDVEDVKFVINYDYPNSSEDYVHRIGRTARSTNKGTAYTFFTPGNLKQARELIKVLEEANQAINPKLMQLVDHRGGGGGGGGRSRYRTTSSANNPNLMYQDECDRRLRGVKDGGRRDSASYRDRSETDRAGYANGSGYGSPNSAFGAQAGQYTYGQGTYGAAAYGTSSYTAQEYGAGTYGASSTTSTGRSSQSSSQQFSGIGRSGQQPQPLMSQQFAQPPGATNMIGYMGQTAYQYPPPPPPPPPSRK | 1 |
| SF01_HUMAN (protein, UniProt Q15637 2-639, looked up) Splicing factor 1: ATGANATPLDFPSKKRKRSRWNQDTMEQKTVIPGMPTVIPPGLTREQERAYIVQLQIEDLTRKLRTGDLGIPPNPEDRSPSPEPIYNSEGKRLNTREFRTRKKLEEERHNLITEMVALNPDFKPPADYKPPATRVSDKVMIPQDEYPEINFVGLLIGPRGNTLKNIEKECNAKIMIRGKGSVKEGKVGRKDGQMLPGEDEPLHALVTANTMENVKKAVEQIRNILKQGIETPEDQNDLRKMQLRELARLNGTLREDDNRILRPWQSSETRSITNTTVCTKCGGAGHIASDCKFQRPGDPQSAQDKARMDKEYLSLMAELGEAPVPASVGSTSGPATTPLASAPRPAAPANNPPPPSLMSTTQSRPPWMNSGPSESRPYHGMHGGGPGGPGGGPHSFPHPLPSLTGGHGGHPMQHNPNGPPPPWMQPPPPPMNQGPHPPGHHGPPPMDQYLGSTPVGSGVYRLHQGKGMMPPPPMGMMPPPPPPPSGQPPPPPSGPLPPWQQQQQQPPPPPPPSSSMASSTPLPWQQNTTTTTTSAGTGSIPPWQQQQAAAAASPGAPQMQGNPTMVPLPPGVQPPLPPGAPPPPPPPPPGSAGMMYAPPPPPPPPMDPSNFVTMMGMGVAGMPPFGMPPAPPPPPPQN | 0.9 |
| MCM4_HUMAN (protein, UniProt P33991 2-863, looked up) DNA replication licensing …: SSPASTPSRRGSRRGRATPAQTPRSEDARSSPSQRRRGEDSTSTGELQPMPTSPGVDLQSPAAQDVLFSSPPQMHSSAIPLDFDVSSPLTYGTPSSRVEGTPRSGVRGTPVRQRPDLGSAQKGLQVDLQSDGAAAEDIVASEQSLGQKLVIWGTDVNVAACKENFQRFLQRFIDPLAKEEENVGIDITEPLYMQRLGEINVIGEPFLNVNCEHIKSFDKNLYRQLISYPQEVIPTFDMAVNEIFFDRYPDSILEHQIQVRPFNALKTKNMRNLNPEDIDQLITISGMVIRTSQLIPEMQEAFFQCQVCAHTTRVEMDRGRIAEPSVCGRCHTTHSMALIHNRSLFSDKQMIKLQESPEDMPAGQTPHTVILFAHNDLVDKVQPGDRVNVTGIYRAVPIRVNPRVSNVKSVYKTHIDVIHYRKTDAKRLHGLDEEAEQKLFSEKRVELLKELSRKPDIYERLASALAPSIYEHEDIKKGILLQLFGGTRKDFSHTGRGKFRAEINILLCGDPGTSKSQLLQYVYNLVPRGQYTSGKGSSAVGLTAYVMKDPETRQLVLQTGALVLSDNGICCIDEFDKMNESTRSVLHEVMEQQTLSIAKAGIICQLNARTSVLAAANPIESQWNPKKTTIENIQLPHTLLSRFDLIFLLLDPQDEAYDRRLAHHLVALYYQSEEQAEEELLDMAVLKDYIAYAHSTIMPRLSEEASQALIEAYVDMRKIGSSRGMVSAYPRQLESLIRLAEAHAKVRLSNKVEAIDVEEAKRLHREALKQSATDPRTGIVDISILTTGMSATSRKRKEELAEALKKLILSKGKTPALKYQQLFEDIRGQSDIAITKDMFEEALRALADDDFLTVTGKTVRLL | 0.5 |
| PLOD3_HUMAN (protein, UniProt O60568 25-738, looked up) Multifunctional procollagen …: SDRPRGRDPVNPEKLLVITVATAETEGYLRFLRSAEFFNYTVRTLGLGEEWRGGDVARTVGGGQKVRWLKKEMEKYADREDMIIMFVDSYDVILAGSPTELLKKFVQSGSRLLFSAESFCWPEWGLAEQYPEVGTGKRFLNSGGFIGFATTIHQIVRQWKYKDDDDDQLFYTRLYLDPGLREKLSLNLDHKSRIFQNLNGALDEVVLKFDRNRVRIRNVAYDTLPIVVHGNGPTKLQLNYLGNYVPNGWTPEGGCGFCNQDRRTLPGGQPPPRVFLAVFVEQPTPFLPRFLQRLLLLDYPPDRVTLFLHNNEVFHEPHIADSWPQLQDHFSAVKLVGPEEALSPGEARDMAMDLCRQDPECEFYFSLDADAVLTNLQTLRILIEENRKVIAPMLSRHGKLWSNFWGALSPDEYYARSEDYVELVQRKRVGVWNVPYISQAYVIRGDTLRMELPQRDVFSGSDTDPDMAFCKSFRDKGIFLHLSNQHEFGRLLATSRYDTEHLHPDLWQIFDNPVDWKEQYIHENYSRALEGEGIVEQPCPDVYWFPLLSEQMCDELVAEMEHYGQWSGGRHEDSRLAGGYENVPTVDIHMKQVGYEDQWLQLLRTYVGPMTESLFPGYHTKARAVMNFVVRYRPDEQPSLRPHHDSSTFTLNVALNHKGLDYEGGGCRFLRYDCVISSPRKGWALLHPGRLTHYHEGLPTTWGTRYIMVSFVDP | 0 |

— publication PMC10540216, “Activity Guided Azide-methyllysine Photo-trapping for Substrate Profiling of Lysine Demethylases” (Journal of the American Chemical Society, 2023)
